Measurements published in patent US20250361296A1 (BIOCYTOGEN PHARMACEUTICALS BEIJING, published 2025).

T1: human SIGLEC15 on CHO-S-hSIGLEC15 cells (human, UniProt Q6ZMC9 20-328)
T1 sequence: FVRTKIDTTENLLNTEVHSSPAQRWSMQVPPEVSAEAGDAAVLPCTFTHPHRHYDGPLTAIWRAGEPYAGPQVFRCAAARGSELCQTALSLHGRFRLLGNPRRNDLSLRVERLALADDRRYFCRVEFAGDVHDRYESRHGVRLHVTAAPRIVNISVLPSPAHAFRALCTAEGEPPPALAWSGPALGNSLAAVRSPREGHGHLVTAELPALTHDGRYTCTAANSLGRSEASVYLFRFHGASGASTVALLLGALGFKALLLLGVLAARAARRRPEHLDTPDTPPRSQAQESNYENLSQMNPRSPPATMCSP

T2: His-tagged human SIGLEC15 protein (hSIGLEC15-His, Novoprotein Scientific Inc., Cat #: CW37) (human, UniProt Q6ZMC9 20-263)
T2 construct: Bought protein; not shown: His tag
T2 sequence: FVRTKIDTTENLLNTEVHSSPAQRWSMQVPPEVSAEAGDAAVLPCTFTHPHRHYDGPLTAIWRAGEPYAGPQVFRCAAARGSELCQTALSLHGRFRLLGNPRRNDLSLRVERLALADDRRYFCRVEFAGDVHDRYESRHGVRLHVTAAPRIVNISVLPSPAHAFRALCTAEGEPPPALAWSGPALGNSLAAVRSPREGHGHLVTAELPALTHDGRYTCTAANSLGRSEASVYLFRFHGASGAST

T3: His-tagged mouse SIGLEC15 protein (mSIGLEC15-His, ACROBiosystems Inc., Cat #: SG5-M52H7) (mouse)
T3 construct: Bought protein; not shown: His tag
T3 chain: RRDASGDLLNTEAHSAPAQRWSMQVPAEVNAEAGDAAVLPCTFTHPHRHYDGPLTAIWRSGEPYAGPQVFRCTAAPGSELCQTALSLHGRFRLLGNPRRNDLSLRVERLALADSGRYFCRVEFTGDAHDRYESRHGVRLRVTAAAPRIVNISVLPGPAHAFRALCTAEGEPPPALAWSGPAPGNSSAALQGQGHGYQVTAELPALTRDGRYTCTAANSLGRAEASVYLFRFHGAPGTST

B1: anti-SIGLEC15 antibody 10C9 (antibody, human IgG1, V domains shown)
VH: QVQLVQSGAEVKKPGATVKVSCKASGYTFTNYGFSWVRQAPGQGLEWMGWINTYNDNTNYAQKFQGRVTMTTDTSTSTAYMELRSLRSDDTAVYYCARDGLWFGELPHYFDYWGQGTLVTVSS
VL: DIQLTQSPLSSPVTLGQPASISCRSSQSLVNSDGETFLSWLQQRPGQPPRLLIYKISNRFSGVPDRFSGSGAGTDFTLKISRVEAEDVGVYYCMQATQFPHTFGQGTKLEIK
B2: anti-SIGLEC15 antibody 23F4 (antibody, human IgG1, V domains shown)
VH: QVQLQQWGAGLLKPSETLSLTCAVYGGSFSGYFWSWIRQPPGKGLEWIGEINHSGSTNYNPSLKSRVTLSVDTSKNQFSLKLSSVTAADTAVYYCAREGDSSSWGNWFDPWGQGTLVTVSS
VL: EIVLTQSPGTLSLSPGERATLSCRASQSVSSSYLAWYQQKPGQAPRFLIYGASSRATGIPDRFSGSGSGTDFTLTISRLEPEDFAVYYCQQFGNSPLTFGGGTKVEIK

Assays:
[1] = biological target: T1, human SIGLEC15 on CHO-S-hSIGLEC15 cells; assay: flow cytometry (MFI) on CHO-S-hSIGLEC15 cells; antibody sample: 0 d
Procedure: (§1) In the activity detection experiment, 30 μL of CHO-S-hSIGLEC15 cells were added to the culture plate, and the antibody to be tested was added in a gradient dilution ([…]), and incubated at 4° C. for 30 min. The plate was washed with PBS, and diluted secondary antibody Anti-hIgG-Fc-Alex Flour 647 (RL1-H) (1:2000) was added, incubated at 4° C. for 30 min. The plate was washed once with PBS and the cells were resuspended for flow cytometry detection. MFI value was derived by FlowJo 7.6.1 analysis to calculate EC50.

[2] = biological target: T1, human SIGLEC15 on CHO-S-hSIGLEC15 cells; assay: flow cytometry (MFI) on CHO-S-hSIGLEC15 cells; antibody sample: freeze 1
Procedure: as §1

[3] = biological target: T1, human SIGLEC15 on CHO-S-hSIGLEC15 cells; assay: flow cytometry (MFI) on CHO-S-hSIGLEC15 cells; antibody sample: 4° C. 7 d
Procedure: as §1

[4] = biological target: T1, human SIGLEC15 on CHO-S-hSIGLEC15 cells; assay: flow cytometry (MFI) on CHO-S-hSIGLEC15 cells; antibody sample: freeze 10
Procedure: as §1

[5] = biological target: T1, human SIGLEC15 on CHO-S-hSIGLEC15 cells; assay: flow cytometry (MFI) on CHO-S-hSIGLEC15 cells; antibody sample: 25° C. 7 d
Procedure: as §1

[6] = biological target: T1, human SIGLEC15 on CHO-S-hSIGLEC15 cells; assay: flow cytometry (MFI) on CHO-S-hSIGLEC15 cells; antibody sample: 40° C. 7 d
Procedure: as §1

[7] = biological target: T1, human SIGLEC15 on CHO-S-hSIGLEC15 cells; assay: flow cytometry (MFI) on CHO-S-hSIGLEC15 cells; antibody sample: pH 3.5 0 h
Procedure: as §1

[8] = biological target: T1, human SIGLEC15 on CHO-S-hSIGLEC15 cells; assay: flow cytometry (MFI) on CHO-S-hSIGLEC15 cells; antibody sample: pH 3.5 6 h
Procedure: as §1

[9] = biological target: T2, His-tagged human SIGLEC15 protein …; assay: SPR (Biacore 8K), antibody captured on Protein A chip, His-tagged SIGLEC15 as analyte
Procedure: (§2) Purified anti-SIGLEC15 antibodies was captured on the Protein A chip (Series S Sensor Chip Protein A) for the detection. […] The flow rate was 30 μL/min, the binding and dissociation time were set to 180 s and 600 s, respectively. The chip was regenerated after the last injection of each titration with a glycine solution (pH 2.0) at 30 μL/min for 30 seconds.
(§3) Kinetic association rates (kon) and dissociation rates (koff) were obtained simultaneously by fitting the data globally to a 1:1 Langmuir binding model (Karlsson, R. Roos, H. Fagerstam, L. Petersson, B., 1994. Methods Enzymology 6. 99-110) using Biacore™ 8K Evaluation Software 3.0. Affinities were deduced from the quotient of the kinetic rate constants (KD=koff/kon). As a person of ordinary skill in the art would understand, the same method with appropriate adjustments for parameters (e.g., antibody concentration) was performed for each tested antibody.

[10] = biological target: T3, His-tagged mouse SIGLEC15 protein …; assay: as above
Procedure: as §2, §3

Row | Binder | EC50 [1] [µg/mL] | EC50 [2] [µg/mL] | EC50 [3] [µg/mL] | EC50 [4] [µg/mL] | EC50 [5] [µg/mL] | EC50 [6] [µg/mL] | EC50 [7] [µg/mL] | EC50 [8] [µg/mL] | Kd [9] [pM] | koff [9] [s⁻¹] | kon [9] [M⁻¹ s⁻¹] | Kd [10] [pM] | koff [10] [s⁻¹] | kon [10] [M⁻¹ s⁻¹]
1 | B1 | 1.17 | 0.62 | 0.85 | 0.81 | 0.65 | 0.6 | 0.44 | 0.11 | 0.0846 | 2.23e-07 | 2.63e+06 | 2170 | 0.00253 | 1.17e+06
2 | B2 | 0.129 | 0.125 | 0.122 | 0.129 | 0.106 | 0.111 | 0.148 | 0.221 | 0.164 | 6.85e-07 | 4.19e+06 | 1970 | 0.00126 | 639000
